Experiment [1] concerns the target T1, C-NAP1 amino acids 1000-1300 (two-hybrid bait, fused to the Gal4 DNA binding domain) (yeast, UniProt P04386 1-147; Q9BV73 1000-1300).
T1 construct: range 1-147;range 1000-1300; Bait was expressed in yeast as a C-terminal fusion to Gal4 DBD 1-147 from vector pGBTQ
The experiment can be described thus: yeast two-hybrid, bait C-NAP1 AA 1000-1300, prey AA 7-283. The source says: (§1) A total human brain (person) cDNA library cloned into the yeast expression vector pACT2 was purchased from Clontech (human brain […] cDNA, cat. #HL4004AH), transformed into the yeast strain J692 (genotype of this strain: Mat α, ade2, his3, leu2, trp1, URA3::GAL1-lacZ LYS2::GAL1-HIS3 gal4del ga18Odel cyhR2), and selected for the ability to drive leucine synthesis. In these yeast cells, each cDNA is expressed as a fusion protein with the transcription activation domain of the transcription factor Gal4 (amino acids 768 to 881) and a 9 amino acid hemagglutinin epitope tag. J693 cells (Mat a type) expressing the bait were then mated with J692 cells […] expressing proteins from the brain library. The resulting diploid yeast cells expressing proteins interacting with the bait protein were selected for the ability to synthesize tryptophan, leucine, histidine, and β-galactosidase. DNA was prepared from each clone, transformed by electroporation into E. coli strain KC8 (Clontech KC8 electrocompetent cells, cat. #C2023-1), and the cells were selected on ampicillin-containing plates in the absence of either tryptophane (selection for the bait plasmid) or leucine (selection for the brain library plasmid). DNA for both plasmids was prepared and sequenced by di-deoxynucleotide chain termination method. […]

For experiment [2], the target named is T1, C-NAP1 amino acids 1000-1300 …. The experiment can be described thus: yeast two-hybrid, C-NAP1 fragment as Gal4 DBD bait, human brain library prey. The source says:
In these yeast cells, the bait is produced as a C-terminal fusion protein with the DNA binding domain of the transcription factor Gal4 (amino acids 1 to 147). A total human brain (person) cDNA library cloned into the yeast expression vector pACT2 was purchased from Clontech (human brain […] cDNA, cat. #HL4004AH), transformed into the yeast strain J692 (genotype of this strain: Mat α, ade2, his3, leu2, trp1, URA3::GAL1-lacZ LYS2::GAL1-HIS3 gal4del ga18Odel cyhR2), and selected for the ability to drive leucine synthesis. In these yeast cells, each cDNA is expressed as a fusion protein with the transcription activation domain of the transcription factor Gal4 (amino acids 768 to 881) and a 9 amino acid hemagglutinin epitope tag. J693 cells (Mat a type) expressing the bait were then mated with J692 cells (Mat a type) expressing proteins from the brain library. The resulting diploid yeast cells expressing proteins interacting with the bait protein were selected for the ability to synthesize tryptophan, leucine, histidine, and β-galactosidase. DNA was prepared from each clone, transformed by electroporation into E. coli strain KC8 (Clontech KC8 electrocompetent cells, cat. #C2023-1), and the cells were selected on ampicillin-containing plates in the absence of either tryptophane (selection for the bait plasmid) or leucine (selection for the brain library plasmid). […]

Experiment [3] has as its target T2, C-NAP1 amino acids 250-550 (two-hybrid bait, fused to the Gal4 DNA binding domain) (yeast, UniProt P04386 1-147; Q9BV73 250-550).
T2 construct: range 1-147;range 250-550; Bait was expressed in yeast as a C-terminal fusion to Gal4 DBD 1-147 from vector pGBTQ
The experiment can be described thus: yeast two-hybrid, bait C-NAP1 AA 250-550, prey AA 1314-1575.
Excerpt: as §1

For experiment [4], the target named is T1, C-NAP1 amino acids 1000-1300 …. Briefly: yeast two-hybrid, bait C-NAP1 AA 1000-1300, prey AA 184-246.
Excerpt: as §1

For experiment [5], the target named is T3, C-NAP1 amino acids 1-300 (two-hybrid bait, fused to the Gal4 DNA binding domain) (yeast, UniProt P04386 1-147; Q9BV73 1-300).
T3 construct: range 1-147;range 1-300; Bait cDNA was made by PCR from brain cDNA; It was expressed in yeast as a C-terminal fusion to Gal4 DBD 1-147 from vector pGBTQ
Briefly: yeast two-hybrid, bait C-NAP1 AA 1-300, prey AA 2-76.
Excerpt: as §1

Data on 5 molecules can be found in patent US20030055219A1 (MYRIAD GENETICS, published 2003).

B1: KIAA0174 amino acids 7-283 (two-hybrid prey clone, fused to the Gal4 activation domain) (other, yeast;human, UniProt P04386 768-881, looked up, not shown: small tags and cut ends)
chain: ANFNQSGNIADSSLSFTFTNSSNGPNLITTQTNSQALSQPIASSNVHDNFMNNEITASKIDDGNNSKPLSPGWTDQTAYNAFGITTGMFNTTTMDDVYNYLFDDEDTPPNPKKEKAERLRVNLRLVINRLKLLEKKKTELAQKARKEIADYLAAGKDERARIRVEHIIREDYLVEAMEILELYCDLLLARFGLIQSMKELDSGLAESVSTLIWAAPRLQSEVAELKIVADQLCAKYSKEYGKLCRTNQIGTVNDRLMHKLSVEAPPKILVERYLIEIAKNYNVPYEPDSVVMAEAPPGVETDLIDVGFTDDVKKGGPGRGGSGGFTAPVGGPDGTVPMPMPMPMPSANTPFSYPLPKGPSDFNGLPMGTYQAFPNIHPPQIPATPPSYESV
notes: range 768-881;range 7-283
As to B1, the binding result in experiment [1] is “binds”.

B2: FIP-2 amino acids 302-577 (two-hybrid prey clone, fused to the Gal4 activation domain) (other, yeast;human, UniProt P04386 768-881, looked up, not shown: small tags and cut ends)
chain: ANFNQSGNIADSSLSFTFTNSSNGPNLITTQTNSQALSQPIASSNVHDNFMNNEITASKIDDGNNSKPLSPGWTDQTAYNAFGITTGMFNTTTMDDVYNYLFDDEDTPPNPKKELNLQVTSLFKELQEAHTKLSEAELMKKRLQEKCQALERKNSAIPSELNEKQELVYTNKKLELQVESMLSEIKMEQAKTEDEKSKLTVLQMTHNKLLQEHNNALKTIEELTRKESEKVDRAVLKELSEKLELAEKALASKQLQMDEMKQTIAKQEEDLETMTILRAQMEVYCSDFHAERAAREKIHEEKEQLALQLAVLLKENDAFEDGGRQSLMEMQSRHGARTSDSDQQAYLVQRGAEDRDWRQQRNIPIHSCPKCGEVLPDIDTLQIHVMDCII
notes: Prey came from the Clontech human brain library in pACT2; The clone 'included' these residues
Take B2: the binding result in experiment [2] is listed as “binds”.

B3: IQGAP2 amino acids 1314-1575 (two-hybrid prey clone, fused to the Gal4 activation domain) (other, yeast;human, UniProt P04386 768-881, looked up, not shown: small tags and cut ends)
chain: ANFNQSGNIADSSLSFTFTNSSNGPNLITTQTNSQALSQPIASSNVHDNFMNNEITASKIDDGNNSKPLSPGWTDQTAYNAFGITTGMFNTTTMDDVYNYLFDDEDTPPNPKKEQPGNTLTEILETPATAQQEVDHATDMVSRAMIDSRTPEEMKHSQSMIEDAQLPLEQKKRKIQRNLRTLEQTGHVSSENKYQDILNEIAKDIRNQRIYRKLRKAELAKLQQTLNALNKKAAFYEEQINYYDTYIKTCLDNLKRKNTRRSIKLDGKGEPKGAKRAKPVKYTAAKLHEKGVLLDIDDLQTNQFKNVTFDIIATEDVGIFDVRSKFLGVEMEKVQLNIQDLLQMQYEGVAVMKMFDKVKVNVNLLIYLLNKKFYGK
With B3, in experiment [3], the binding result is recorded as “binds”.

B4: BAP31 amino acids 184-246 (two-hybrid prey clone, fused to the Gal4 activation domain) (other, yeast;human, UniProt P04386 768-881, looked up, not shown: small tags and cut ends)
chain: ANFNQSGNIADSSLSFTFTNSSNGPNLITTQTNSQALSQPIASSNVHDNFMNNEITASKIDDGNNSKPLSPGWTDQTAYNAFGITTGMFNTTTMDDVYNYLFDDEDTPPNPKKELKADLQKLKDELASTKQKLEKAENQVLAMRKQSEGLTKEYDRLLEEHAKLQAAVDGPMDKKEE
notes: range 768-881;range 184-246; The printed GenBank number 'U5211' looks truncated
For B4, the binding result in experiment [4] is “binds”.

B5: HSBP1 amino acids 2-76 (two-hybrid prey clone, fused to the Gal4 activation domain) (other, yeast;human, UniProt P04386 768-881, looked up, not shown: small tags and cut ends)
chain: ANFNQSGNIADSSLSFTFTNSSNGPNLITTQTNSQALSQPIASSNVHDNFMNNEITASKIDDGNNSKPLSPGWTDQTAYNAFGITTGMFNTTTMDDVYNYLFDDEDTPPNPKKEAETDPKTVQDLTSVVQTLLQQMQDKFQTMSDQIIGRIDDMSSRIDDLEKNIADLMTQAGVEELESENKIPATQKS
notes: range 768-881;range 2-76
In the case of B5, the binding result in experiment [5] is given as “binds”.
